From patent US20110118131A1 (published 2011)
Numbering of substitutions follows the chain as printed. Names and notes keep the numbering of the source.

B1: XPA23 light chain A91F (Fab, V domains shown)
VH: EVQLLESGGGLVQPGGSLRLSCAASGFTFSKYFMFWVRQAPGKGLEWVSVISPSGGMTRYADSVKGRFTISRDNSKNTLYLQMNSLRAEDTAVYYCARVGYGGNSDYWGQGTLVTVSS
VL: DIQMTQSPSSVSASVGDRLTIICRASQDINRWLAWYQQTPGNAPKLLIHSATSLQSGVPSRFSGSGSGTDFTLTINSLQPEDFATYYCQQFDSFPLTFGGGTKVEIK
B2: XPA23 light chain A91H (Fab, V domains shown)
VH: B1 VH
VL: B1 VL with F91H
B3: XPA23 light chain A91N (Fab, V domains shown)
VH: B1 VH
VL: B1 VL with F91N
B4: XPA23 light chain A91Q (Fab, V domains shown)
VH: B1 VH
VL: B1 VL with F91Q
B5: XPA23 light chain A91R (Fab, V domains shown)
VH: B1 VH
VL: B1 VL with F91R
B6: XPA23 light chain A91S (Fab, V domains shown)
VH: B1 VH
VL: B1 VL with F91S
B7: XPA23 light chain A91W (Fab, V domains shown)
VH: B1 VH
VL: B1 VL with F91W
B8: XPA23 light chain A91Y (Fab, V domains shown)
VH: B1 VH
VL: B1 VL with F91Y
B9: XPA23 light chain D28A (Fab, V domains shown)
VH: B1 VH
VL: B1 VL with D28A, F91A
B10: XPA23 light chain D28E (Fab, V domains shown)
VH: B1 VH
VL: B1 VL with D28E, F91A
B11: XPA23 light chain D28F (Fab, V domains shown)
VH: B1 VH
VL: B1 VL with D28F, F91A
B12: XPA23 light chain D28G (Fab, V domains shown)
VH: B1 VH
VL: B1 VL with D28G, F91A
B13: XPA23 light chain D28H (Fab, V domains shown)
VH: B1 VH
VL: B1 VL with D28H, F91A
B14: XPA23 light chain D28I (Fab, V domains shown)
VH: B1 VH
VL: B1 VL with D28I, F91A
B15: XPA23 light chain D28K (Fab, V domains shown)
VH: B1 VH
VL: B1 VL with D28K, F91A
B16: XPA23 light chain D28L (Fab, V domains shown)
VH: B1 VH
VL: B1 VL with D28L, F91A
B17: XPA23 light chain D28N (Fab, V domains shown)
VH: B1 VH
VL: B1 VL with D28N, F91A
B18: XPA23 light chain D28P (Fab, V domains shown)
VH: B1 VH
VL: B1 VL with D28P, F91A
B19: XPA23 light chain D28R (Fab, V domains shown)
VH: B1 VH
VL: B1 VL with D28R, F91A
B20: XPA23 light chain D28S (Fab, V domains shown)
VH: B1 VH
VL: B1 VL with D28S, F91A
B21: XPA23 light chain D28T (Fab, V domains shown)
VH: B1 VH
VL: B1 VL with D28T, F91A
B22: XPA23 light chain D28V (Fab, V domains shown)
VH: B1 VH
VL: B1 VL with D28V, F91A
B23: XPA23 light chain D28W (Fab, V domains shown)
VH: B1 VH
VL: B1 VL with D28W, F91A
B24: XPA23 light chain D28Y (Fab, V domains shown)
VH: B1 VH
VL: B1 VL with D28Y, F91A
B25: XPA23 light chain D92E (Fab, V domains shown)
VH: B1 VH
VL: B1 VL with F91A, D92E
B26: XPA23 light chain D92F (Fab, V domains shown)
VH: B1 VH
VL: B1 VL with F91A, D92F
B27: XPA23 light chain D92H (Fab, V domains shown)
VH: B1 VH
VL: B1 VL with F91A, D92H
B28: XPA23 light chain D92K (Fab, V domains shown)
VH: B1 VH
VL: B1 VL with F91A, D92K
B29: XPA23 light chain D92N (Fab, V domains shown)
VH: B1 VH
VL: B1 VL with F91A, D92N
B30: XPA23 light chain D92Q (Fab, V domains shown)
VH: B1 VH
VL: B1 VL with F91A, D92Q
B31: XPA23 light chain D92R (Fab, V domains shown)
VH: B1 VH
VL: B1 VL with F91A, D92R
B32: XPA23 light chain D92S (Fab, V domains shown)
VH: B1 VH
VL: B1 VL with F91A, D92S

Molecular target: T1, IL-1β (UniProt P01584 117-269)
T1 construct: Antigen immobilised on the Biacore chip
Test: Biacore, periplasmic extract

| Binder | binding result | fold difference in affinity vs original [fold] |
| --- | --- | --- |
| B1 | no binding | – |
| B2 | – | 1.12 |
| B3 | – | 0.1 |
| B4 | no binding | – |
| B5 | no binding | – |
| B6 | – | 0.9 |
| B7 | no binding | – |
| B8 | no binding | – |
| B9 | – | 0.88 |
| B10 | – | 0.74 |
| B11 | – | 1.43 |
| B12 | – | 1.21 |
| B13 | – | 1.23 |
| B14 | no binding | – |
| B15 | – | 0.82 |
| B16 | – | 9.64 |

| Binder | binding result | fold difference in affinity vs original [fold] |
| --- | --- | --- |
| B17 | – | 1 |
| B18 | – | 1.17 |
| B19 | – | 0.94 |
| B20 | – | 5.25 |
| B21 | – | 1.19 |
| B22 | – | 0.85 |
| B23 | – | 3.81 |
| B24 | – | 1.45 |
| B25 | – | 0.99 |
| B26 | – | 0.26 |
| B27 | – | 0.63 |
| B28 | – | 0.23 |
| B29 | – | 0.67 |
| B30 | – | 0.56 |
| B31 | no binding | – |
| B32 | – | 6.59 |
